The text below walks through data of paper PMC4350885.

This test has as its target Deinococcus radiodurans DNA polymerase III β subunit (β-clamp), short version of 362 amino acids (Deinococcus radiodurans strain R1). The test can be described thus: SEC; Superdex 75 10/30, purified Drβ-clamp, size and tertiary structure analysis. For orientation: Size exclusion chromatography separates by hydrodynamic size, large species first.

As a reminder, the stoichiometry N is the number of molecules, sites or subunits per partner or assembly. Substance “Deinococcus radiodurans DNA polymerase III β subunit (β-clamp), short version of 362 amino acids (natural protein)” registered a stoichiometry N of 2.
